Residue numbers refer to the chain shown, from its start.

The text below walks through data of patent US20180134765A1 (AVIDBIOTICS, published 2018).

T1: NKG2D on NKL cells (human, UniProt P26718 1-216)
T1 sequence (looked up): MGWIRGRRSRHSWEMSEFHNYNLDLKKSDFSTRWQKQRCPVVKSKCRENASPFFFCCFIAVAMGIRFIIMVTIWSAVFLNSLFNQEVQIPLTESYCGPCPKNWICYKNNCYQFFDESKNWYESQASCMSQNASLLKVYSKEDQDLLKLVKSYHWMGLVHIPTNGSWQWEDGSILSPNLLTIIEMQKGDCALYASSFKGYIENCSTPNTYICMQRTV

T2: human NKG2D-Fc (human, UniProt P26718 78-216, limits assumed)
T2 construct: also called natural NKG2D-Fc; not shown: Fc part
T2 sequence (looked up): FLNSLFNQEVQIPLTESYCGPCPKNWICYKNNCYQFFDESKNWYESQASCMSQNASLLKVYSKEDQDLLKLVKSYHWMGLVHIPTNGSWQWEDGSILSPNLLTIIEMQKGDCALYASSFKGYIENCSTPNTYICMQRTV

T3: His-avitag-natural NKG2D (human, biotin on the avitag sequence (BirA))
T3 construct: also called natural NKG2D ectodomain; wild type NKG2D
T3 chain: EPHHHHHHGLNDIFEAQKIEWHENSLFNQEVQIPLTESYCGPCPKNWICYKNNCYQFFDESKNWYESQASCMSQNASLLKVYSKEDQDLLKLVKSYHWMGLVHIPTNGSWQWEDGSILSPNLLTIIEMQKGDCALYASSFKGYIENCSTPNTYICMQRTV

T4: murine NKG2D-Fc (mouse, UniProt O54709 94-232, limits assumed)
T4 construct: also called mouse NKG2D-Fc; not shown: Fc part; not described
T4 sequence (looked up): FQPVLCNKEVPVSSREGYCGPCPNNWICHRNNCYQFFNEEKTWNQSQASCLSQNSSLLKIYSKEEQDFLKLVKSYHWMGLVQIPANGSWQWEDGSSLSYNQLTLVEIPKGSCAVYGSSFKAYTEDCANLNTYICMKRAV

B1: α1-α2 variant 16 (ligand)
chain: EPHSLRYNLTVLSWDGSVQSGFLTEVHLDGQPFLRCDRQKCRAKPQGQWAEDVLGNKTWDRETRDLTGWGKDLRMTLAHIKDQKEGLHSLQEIRVCEIHEDNSTRSSQHFYYDGELFLSQNLETLEWTMPQSSRAQTLAMNVRNFLKEDAMETDTHYHAMRADCLQELRRYLKSGVVLRRTVPPMVQVTRSEASGGSGDRVTITCRASQDVSTAVAWYQQKPGKAPKLLIYSASFLYSGVPSRFSGSGSGTDFTLTISSLQPEDFATYYCQQSYTTPPTFGQGTKVEIKGGSSRSSSSGGGGSGGGGEVQLVESGGGLVQPGGSLRLSCAASGFTFTSTGISWVRQAPGKGLEWVGRIYPTNGSTNYADSVKGRFTISADTSKNTAYLQMNSLRAEDTAVYYCARTYGIYDLYVDYTEYVMDYWGQGTLVTVSSGGSSRSSSSGGGGSGGGGDIQMTQSPSSLSASGGSGQITVTCRASGFYPWNITLSWRQDGVSLSHDTQQWGDVLPDGQGTYQTWVATRISQGEEQRFTCYMEHSGQHSTHPVPSGKGSHHHHHH
B2: α1-α2 variant 18 (ligand)
chain: B1 chain with S20P, G68L
B3: α1-α2 variant 17 (ligand)
chain: B1 chain with G68L
B4: ULBP4-α3-iFv.2 (designed binder)
chain: EPHSLCFNFTIKSLSRPGQPWCEAQVFLNKNLFLQYNSDNNMVKPLGLLGKKVYATSTWGELTQTLGEVGRDLRMLLCDIKPQIKTSDPSTLQVEMFCQREAERCTGASWQFATNGEKSLLFDAMNMTWTVINHEASKIKETWKKDRGLEKYFRKLSKGDCDHWLREFLGHWEAMPEPTVSPPMVQVTRSEASGGSGDRVTITCRASQDVSTAVAWYQQKPGKAPKLLIYSASFLYSGVPSRFSGSGSGTDFTLTISSLQPEDFATYYCQQSYTTPPTFGQGTKVEIKGGSSRSSSSGGGGSGGGGEVQLVESGGGLVQPGGSLRLSCAASGFTFTSTGISWVRQAPGKGLEWVGRIYPTNGSTNYADSVKGRFTISADTSKNTAYLQMNSLRAEDTAVYYCARTYGIYDLYVDYTEYVMDYWGQGTLVTVSSGGSSRSSSSGGGGSGGGGDIQMTQSPSSLSASGGSGQITVTCRASGFYPWNITLSWRQDGVSLSHDTQQWGDVLPDGQGTYQTWVATRISQGEEQRFTCYMEHSGQHSTHPVPSGKGSHHHHHH
notes: His-tagged, monomeric, insect cells; also called NKG2DL-α3-iFv.2 (ULBP4)
B5: ULBP3-α3-iFv.2 (designed binder)
chain: EPHSLWYNFTIIHLPRHGQQWCEVQSQVDQKNFLSYDCGSDKVLSMGHLEEQLYATDAWGKQLEMLREVGQRLRLELADTELEDFTPSGPLTLQVRMSCECEADGYIRGSWQFSFDGRKFLLFDSNNRKWTVVHAGARRMKEKWEKDSGLTTFFKMVSMRDCKSWLRDFLMHRKKRLEPTAPPMVQVTRSEASGGSGDRVTITCRASQDVSTAVAWYQQKPGKAPKLLIYSASFLYSGVPSRFSGSGSGTDFTLTISSLQPEDFATYYCQQSYTTPPTFGQGTKVEIKGGSSRSSSSGGGGSGGGGEVQLVESGGGLVQPGGSLRLSCAASGFTFTSTGISWVRQAPGKGLEWVGRIYPTNGSTNYADSVKGRFTISADTSKNTAYLQMNSLRAEDTAVYYCARTYGIYDLYVDYTEYVMDYWGQGTLVTVSSGGSSRSSSSGGGGSGGGGDIQMTQSPSSLSASGGSGQITVTCRASGFYPWNITLSWRQDGVSLSHDTQQWGDVLPDGQGTYQTWVATRISQGEEQRFTCYMEHSGQHSTHPVPSGKGSHHHHHH
notes: His-tagged, monomeric, insect cells; also called NKG2DL-α3-iFv.2 (ULBP3)
B6: ULBP1-α3-iFv.2 (designed binder)
chain: EPHCLCYDFIITPKSRPEPQWCEVQGLVDERPFLHYDCVNHKAKAFASLGKKVNVTKTWEEQTETLRDVVDFLKGQLLDIQVENLIPIEPLTLQARMSCEHEAHGHGRGSWQFLFNGQKFLLFDSNNRKWTALHPGAKKMTEKWEKNRDVTMFFQKISLGDCKMWLEEFLMYWEQMLDPTKPPMVQVTRSEASGGSGDRVTITCRASQDVSTAVAWYQQKPGKAPKLLIYSASFLYSGVPSRFSGSGSGTDFTLTISSLQPEDFATYYCQQSYTTPPTFGQGTKVEIKGGSSRSSSSGGGGSGGGGEVQLVESGGGLVQPGGSLRLSCAASGFTFTSTGISWVRQAPGKGLEWVGRIYPTNGSTNYADSVKGRFTISADTSKNTAYLQMNSLRAEDTAVYYCARTYGIYDLYVDYTEYVMDYWGQGTLVTVSSGGSSRSSSSGGGGSGGGGDIQMTQSPSSLSASGGSGQITVTCRASGFYPWNITLSWRQDGVSLSHDTQQWGDVLPDGQGTYQTWVATRISQGEEQRFTCYMEHSGQHSTHPVPSGKGSHHHHHH
notes: His-tagged, monomeric, insect cells; also called NKG2DL-α3-iFv.2 (ULBP1)
B7: ULBP6-α3-iFv.2 (designed binder)
chain: EPHSLCYDITVIPKFRPGPRWCAVQGQVDEKTFLHYDCGNKTVTPVSPLGKKLNVTTAWKAQNPVLREVVDILTEQLLDIQLENYTPKEPLTLQARMSCEQKAEGHSSGSWQFSIDGQTFLLFDSEKRMWTTVHPGARKMKEKWENDKDVAMSFHYISMGDCIGWLEDFLMGMDSTLEPSAGAPPMVQVTRSEASGGSGDRVTITCRASQDVSTAVAWYQQKPGKAPKLLIYSASFLYSGVPSRFSGSGSGTDFTLTISSLQPEDFATYYCQQSYTTPPTFGQGTKVEIKGGSSRSSSSGGGGSGGGGEVQLVESGGGLVQPGGSLRLSCAASGFTFTSTGISWVRQAPGKGLEWVGRIYPTNGSTNYADSVKGRFTISADTSKNTAYLQMNSLRAEDTAVYYCARTYGIYDLYVDYTEYVMDYWGQGTLVTVSSGGSSRSSSSGGGGSGGGGDIQMTQSPSSLSASGGSGQITVTCRASGFYPWNITLSWRQDGVSLSHDTQQWGDVLPDGQGTYQTWVATRISQGEEQRFTCYMEHSGQHSTHPVPSGKGSHHHHHH
notes: His-tagged, monomeric, insect cells; also called NKG2DL-α3-iFv.2 (ULBP6)
B8: wt MICA-Fv (designed binder)
chain: B1 chain with W69N, L125K, E152K, D154K, R161H
notes: His-tagged α1-α2-α3-Fv fusion, made in 293 cells; also called natural α1-α2 domain α3-Fv fusion
B9: MICv20-Fv (designed binder)
chain: B1 chain with G68A, E152Q, H158R, R161H, Q166F
notes: His-tagged α1-α2-α3-Fv fusion; also called DSM20 α1-α2-α3-Fv fusion
B10: MICv48-Fv (designed binder)
chain: B1 chain with E152A, H158I, Q166A
notes: His-tagged α1-α2-α3-Fv fusion; also called DSM48 α1-α2-α3-Fv fusion
B11: MICv28-Fv (designed binder)
chain: B1 chain with W69N, E152K, D154K, Q166S
notes: His-tagged α1-α2-α3-Fv fusion; also called DSM28 α1-α2-α3-Fv fusion
B12: MICv49-Fv (designed binder)
chain: B1 chain with S20T, G68Q, L125K, E152F, H158R, R161T, Q166T
notes: His-tagged α1-α2-α3-Fv fusion; also called DSM49 α1-α2-α3-Fv fusion
B13: MICv25-Fv (designed binder)
chain: B1 chain with Q166S
notes: His-tagged α1-α2-α3-Fv fusion; also called DSM25 α1-α2-α3-Fv fusion
B14: MICv42-Fv (designed binder)
chain: B1 chain
notes: His-tagged α1-α2-α3-Fv fusion; also called DSM42 α1-α2-α3-Fv fusion
B15: MICv27-Fv (designed binder)
chain: B1 chain with E152K, D154K, Q166S
notes: His-tagged α1-α2-α3-Fv fusion; also called DSM27 α1-α2-α3-Fv fusion
B16: MICwed-Fv (designed binder)
chain: B1 chain with L125K, R161H
notes: His-tagged α1-α2-α3-Fv fusion; also called MICwed-Fv run A; MICwed-Fv run B

The first experiment has as its target T1, NKG2D on NKL cells. As to the kind of experiment: cell-based or functional assay.
Consider B1, for which the “NK cell-mediated lysis of FGFR3-expressing P815 target cells (calcein release, NKL cells)” value was ~15 fold more killing than WT at 0.78 nM.

B2: the “NK cell-mediated lysis of FGFR3-expressing P815 target cells (calcein release, NKL cells)” value was ~15 fold more killing than WT at 0.78 nM.

As for B3, the “NK cell-mediated lysis of FGFR3-expressing P815 target cells (calcein release, NKL cells)” value is ~15 fold more killing than WT at 0.78 nM.

Another experiment concerns the target T2, human NKG2D-Fc. Nature of the experiment: ELISA: protein captured on FGFR3 detected with NKG2D-Fc. On the technique in general: In an ELISA, binding on a coated surface is turned into a signal by an enzyme label.
Consider B4, for which the binding result is recorded as “binds”.

For B5, the binding result is recorded as “binds”.

Consider B6, for which the binding result is “binds”.

B7: the binding result was “binds”.

Another experiment deals with T3, His-avitag-natural NKG2D. As to the kind of experiment: biolayer interferometry (Octet), biotinylated natural NKG2D ectodomain on the surface, 100 nM fusion protein. For orientation: BLI is a label-free optical method that tracks binding on a fibre tip over time.
The term Kd denotes the free concentration of one partner at which half of the binding sites on the other are occupied at equilibrium, for simple one-to-one binding. A low value points to tighter binding. The term koff denotes the rate constant with which the complex falls apart. Lower therefore signals a long-lived complex. For orientation: kon means a measure of how fast the partners come together. In the case of B8, the Kd was 13.8 nM, the koff is 0.0018 s⁻¹ and the kon was 130000 M⁻¹ s⁻¹.

On to B9, for which the Kd stood at 0.0851 nM, the koff stood at 3.05e-05 s⁻¹ and the kon turned out to be 359000 M⁻¹ s⁻¹.

B10 gave a Kd of 0.244 nM, a koff of 0.000145 s⁻¹ and a kon of 595000 M⁻¹ s⁻¹.

As for B11, the affinity, expressed as Kd, was 0.33 nM; the dissociation rate constant (koff) stood at 7.03e-05 s⁻¹; the on-rate (kon) was determined as 246000 M⁻¹ s⁻¹.

In the case of B12, the affinity, expressed as Kd, was 0.746 nM; the dissociation rate constant (koff) is 2.76e-05 s⁻¹; the kon turned out to be 37000 M⁻¹ s⁻¹.

The molecule B13 registered a Kd of 0.0616 nM, a koff of 2.88e-05 s⁻¹ and a kon of 467000 M⁻¹ s⁻¹.

Molecule B14 yielded a dissociation constant (Kd) of 0.109 nM, a koff of 3.78e-05 s⁻¹ and a kon of 347000 M⁻¹ s⁻¹.

For B15, the Kd is 0.411 nM, the koff came out at 8.54e-05 s⁻¹ and the kon was determined as 208000 M⁻¹ s⁻¹.

The target in the next experiment is T3, His-avitag-natural NKG2D. As to the kind of experiment: biolayer interferometry (Octet), biotinylated natural NKG2D ectodomain on the surface, 100 nM fusion protein; run B.
B16 displayed a Kd of 15.5 nM, a koff of 0.00312 s⁻¹ and a kon of 201000 M⁻¹ s⁻¹.

A further experiment deals with T4, murine NKG2D-Fc. As to the kind of experiment: competition ELISA: variant titrated against mouse NKG2D-Fc binding to plate-coated MICA (competitor), detected with anti-Fc-HRP.
For the molecule B2, the “IC50 (read off the curve)” value is approximately 1 nM.

As for B3, the “IC50 (read off the curve)” value was approximately 1 nM.
